{
  "source": "paper doi:10.1101/2021.10.01.462734",
  "key": {"[1]": {"target": "GFP-mGR GR^dim/Y545A double mutant (mouse)", "assay": "number and brightness"}, "GFP-mGR Y545A (mouse)": {"target": "GFP-mGR Y545A (mouse)", "assay": "number and brightness"}, "[2]": {"target": "ancGR2-LBD (ancient variant of the glucocorticoid receptor ligand-binding domain), wild type, DEX-bound", "assay": "cross-linking"}, "[3]": {"target": "ancGR2-LBD (ancient variant of the glucocorticoid receptor ligand-binding domain), wild type, DEX-bound", "assay": "SPR"}, "[4]": {"target": "ancGR2-LBD Y545C mutant, DEX-bound", "assay": "cross-linking"}, "[5]": {"target": "ancGR2-LBD Y545C mutant, DEX-bound", "assay": "SPR"}},
  "note": "Where “and” joins values, the source holds several entries; their conditions need not be identical. Equal entries are not always repeated.",
  "data": [
    {"substance": "GFP-mGR GR^dim/Y545A double mutant (natural protein)", "values": [
      {"measurement": "stoichiometry N", "setting": "[1]", "result": 3}
    ]},
    {"substance": "GFP-mGR Y545A (natural protein)", "values": [
      {"measurement": "stoichiometry N", "setting": "GFP-mGR Y545A (mouse)", "result": 4}
    ]},
    {"substance": "ancGR2-LBD (ancient variant of the glucocorticoid receptor ligand-binding domain), wild type, DEX-bound (domain or fragment)", "values": [
      {"measurement": "stoichiometry N", "setting": "[2]", "result": "2 and 4"},
      {"measurement": "Kd", "setting": "[3]", "result": 15.3, "unit": "µM"},
      {"measurement": "kD1 (multisite model, first of two independent binding sites)", "setting": "[3]", "result": 2.2, "unit": "µM"},
      {"measurement": "kD2 (multisite model, second of two independent binding sites)", "setting": "[3]", "result": 27.9, "unit": "µM"}
    ]},
    {"substance": "ancGR2-LBD Y545C mutant, DEX-bound (domain or fragment)", "values": [
      {"measurement": "stoichiometry N", "setting": "[4]", "result": 2},
      {"measurement": "kD1 (multisite model, first binding site)", "setting": "[5]", "result": 0.8, "unit": "µM"}
    ]}
  ]
}
